Measurements taken from US20160311883A1 (Eli Lilly, published 2016).
Square brackets hold non-standard residues; d marks the D form. Ends that are not written are not given here. Aib = CC(C)(N)C(=O)O

Target: human glucagon receptor (hGR) (human, UniProt P47871 26-477)
Assay: cell-based or functional assay

Chain of human glucagon receptor (hGR) (P47871 26-477): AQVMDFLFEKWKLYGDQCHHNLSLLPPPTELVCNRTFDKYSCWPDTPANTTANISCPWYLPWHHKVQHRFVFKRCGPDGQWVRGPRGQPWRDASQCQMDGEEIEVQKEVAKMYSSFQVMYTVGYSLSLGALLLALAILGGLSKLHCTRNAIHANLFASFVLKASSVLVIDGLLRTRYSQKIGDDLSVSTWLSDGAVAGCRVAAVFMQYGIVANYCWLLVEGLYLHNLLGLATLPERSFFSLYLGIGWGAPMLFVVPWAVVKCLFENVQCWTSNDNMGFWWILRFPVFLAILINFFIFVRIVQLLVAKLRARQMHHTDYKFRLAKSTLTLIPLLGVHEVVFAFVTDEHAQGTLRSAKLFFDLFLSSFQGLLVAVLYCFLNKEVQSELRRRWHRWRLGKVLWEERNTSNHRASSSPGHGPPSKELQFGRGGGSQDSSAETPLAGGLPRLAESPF

B1: compound of SEQ ID NO: 2 (peptide)
peptide: YSHGTFTSDVSKYLD[Aib]KKAAEFVAWLLEE-OH
modifications: N-terminus assumed
SMILES: CC(C)C[C@H](NC(=O)[C@H](Cc1c[nH]c2ccccc12)NC(=O)[C@H](C)NC(=O)[C@@H](NC(=O)[C@H](Cc1ccccc1)NC(=O)[C@H](CCC(=O)O)NC(=O)[C@H](C)NC(=O)[C@H](C)NC(=O)[C@H](CCCCN)NC(=O)[C@H](CCCCN)NC(=O)C(C)(C)NC(=O)[C@H](CC(=O)O)NC(=O)[C@H](CC(C)C)NC(=O)[C@H](Cc1ccc(O)cc1)NC(=O)[C@H](CCCCN)NC(=O)[C@H](CO)NC(=O)[C@@H](NC(=O)[C@H](CC(=O)O)NC(=O)[C@H](CO)NC(=O)[C@@H](NC(=O)[C@H](Cc1ccccc1)NC(=O)[C@@H](NC(=O)CNC(=O)[C@H](Cc1c[nH]cn1)NC(=O)[C@H](CO)NC(=O)[C@@H](N)Cc1ccc(O)cc1)[C@@H](C)O)[C@@H](C)O)C(C)C)C(C)C)C(=O)N[C@@H](CC(C)C)C(=O)N[C@@H](CCC(=O)O)C(=O)N[C@@H](CCC(=O)O)C(=O)O
For B1, the “hGR stimulated cAMP functional assay, relative EC50” value was 0.0658 ηM.
